{
  "source": "paper PMC10454665",
  "about": "“Structural Analysis of Plasmodium falciparum Hexokinase Provides Novel Information about Catalysis Due to a Plasmodium-Specific Insertion” (International Journal of Molecular Sciences, 2023)",
  "proteins": {"B1": {"name": "Plasmodium falciparum hexokinase (enzyme)", "chain": "MSEYDIAKNDVTYTKLDTIECDIPINEELSWRINKFVNQLRISYSTLEEFVDNFVYELKKGLEAHRKHPNLWIPHECSFKMLDSCIANIPTGQEKGTYYAIDFGGTNFRAVRASLDGKGKIKRDQETYSLKFTGSYSHEKGLLDKHATASQLFDHFAERIKYIMGEFNDLDNKEVKSVGFTFSFPCTSPSINCSILIDWTKGFETGRATNDPVEGRDVCKLMNDAFVRAAIPAKVCCVLNDAVGTLMSCAYQKGRGTPPCYIGIILGTGSNGCYYEPEWKKYKYAGKIINIEFGNFDKDLPTSPIDLVMDWYSANRSRQLFEKMISGAYLGEIVRRFMVNVLQSACSKKMWISDSFNSESGSVVLNDTSKNFEDSRKVAKAAWDMDFTDEQIYVLRKICEAVYNRSAALARGTIAAIAKRIKIIEHSKFTCGVDGSLFVKNAWYCKRLQEHLKVILADKAENLIIIPADDGSGKGAAITAAVIALNADIPQLP", "notes": "Hexokinase of Plasmodium falciparum, PlasmoDB PF3D7_0624000, gene ordered codon-optimised for E. coli and cloned into pET30a-c(+); the model holds I25-N486 (subunit A) and I23-I489 (subunit B); The PlasmoDB id is that of strain 3D7; also called PfHK; P. falciparum hexokinase"}},
  "target": "the molecule itself",
  "assay": "SEC; HiLoad 16/60 Superdex 200 on an AKTA pure system after Talon purification; PfHK eluted at ~65 mL; mass estimated from a calibration curve",
  "data": [
    {"protein": "B1", "values": [
      {"measurement": "stoichiometry N", "value": 4}
    ]}
  ]
}
